Measurements as given in patent US20160251695.

T1: α-fructosyl-valyl-histidyl-leucyl-threonyl-proryl-glutamic acid
T1 chain: VHLTPE


Target: T1, α-fructosyl-valyl-histidyl-leucyl-threon …
Conditions: for αF6P oxidation activity: scale: relative value

Protein | αF6P oxidation activity ratio (relative value (CFP-T7-H2 = 100)) | αF6P oxidation activity ratio (relative value (CFP-T7-H6 = 100)) | αF6P oxidation activity
CFP-T7-H2-62N (protein) MTSNRADTRVIVVGGGGTIGSSTALHLVRSGYAPANITVLDTFEIPSAQSAGHDLNKIMGINLRNKVDLQMSLEARQMWKEDELFQPFFHNTGRMDCEHTPEGIEDLKKLYQALHDAGAGLEKTHAWLDNEDEILSKMPLLQRDQIQGWKAIWSQDGGWLAAAKAINAIGQFLKERGVKFGFGGAGSFKQPLFDDEGTTCIGVETADGTKYYADKVVLAAGAWSPTLVDLEDQCCSKAWVYAHIQLTPEEAAEYKGVPVVYNGEFGFFFEPDEFGVIKVCDEFPGFSRFKEHQPYGAPSPKRISVPRSHAKHPTDTYPDASEVSIKKAIATFLPRFQDKELFNRALCWCTDTADAALLMCEHPKWKNFILATGDSGHSFKILPNVGKYVVELIEGRLPEEMAYQWRWRPGGDALKSRRAAPPKDLADMPGWKHDPKL | 120 |  | 
CFP-T7-H12 (protein) MTSNRADTRVIVVGGGGTIGSSTALHLVRSGYAPANITVLDTFEIPSAQSAGHDLNKIMGIDLRNKVDLQMSLEARQMWKEDELFQPFFHNTGRMDCEHTPEGIERLKKLYQALHDAGAGLEKTHAWLDNEDEILSKMPLLQRDQIQGWKAIWSQDGGWLAAAKAINAIGQFLKERGVKFGFGGAGSFKQPLFDDEGTTCIGVETADGTKYYADKVVLAAGAWSPTLVDLEDQCCSKAWVYAHIQLTPEEAAEYKGVPVVYNGEFGFFFEPDEFGVIKVCDEFPGFSRFKEHQPYGAPSPKRISVPRSHAKHPTDTYPDASEVSIKKAIATFLPRFQDKELFNRALCWCTDTADAALLMCEHPKWKNFILATGDSGHSFKILPNVGKYVVELIEGRLPEEMAYQWRWRPGGDALKSRRAAPPKDLADMPGWKHDPKL |  | 636 | 11.6
CFP-T7-H9 (protein) MTSNRADTRVIVVGGGGTIGSSTALHLVRSGYAPANITVLDTFEIPSAQSAGHDLNKIMGIDLHNKVDLQMSLEARQMWKEDELFQPFFHNTGRMDCEHTPEGIEDLKKLYQALHDAGAGLEKTHAWLDNEDEILSKMPLLQRDQIQGWKAIWSQDGGWLAAAKAINAIGQFLKERGVKFGFGGAGSFKQPLFDDEGTTCIGVETADGTKYYADKVVLAAGAWSPTLVDLEDQCCSKAWVYAHIQLTPEEAAEYKGVPVVYNGEFGFFFEPDEFGVIKVCDEFPGFSRFKEHQPYGAPSPKRISVPRSHAKHPTDTYPDASEVSIKKAIATFLPRFQDKELFNRALCWCTDTADAALLMCEHPKWKNFILATGDSGHSFKILPNVGKYVVELIEGRLPEEMAYQWRWRPGGDALKSRRAAPPKDLADMPGWKHDPKL |  | 44 | 
CFP-T7-H11 (protein) MTSNRADTRVIVVGGGGTIGSSTALHLVRSGYAPANITVLDTFEIPSAQSAGHDLNKIMGIDLRNKVDLQMSLEARQMWKEDELFQPFFHNTGRMDCEHTPEGIEKLKKLYQALHDAGAGLEKTHAWLDNEDEILSKMPLLQRDQIQGWKAIWSQDGGWLAAAKAINAIGQFLKERGVKFGFGGAGSFKQPLFDDEGTTCIGVETADGTKYYADKVVLAAGAWSPTLVDLEDQCCSKAWVYAHIQLTPEEAAEYKGVPVVYNGEFGFFFEPDEFGVIKVCDEFPGFSRFKEHQPYGAPSPKRISVPRSHAKHPTDTYPDASEVSIKKAIATFLPRFQDKELFNRALCWCTDTADAALLMCEHPKWKNFILATGDSGHSFKILPNVGKYVVELIEGRLPEEMAYQWRWRPGGDALKSRRAAPPKDLADMPGWKHDPKL |  | 951 | 12.5
CFP-T7-H6 (protein) MTSNRADTRVIVVGGGGTIGSSTALHLVRSGYAPANITVLDTFEIPSAQSAGHDLNKIMGIDLRNKVDLQMSLEARQMWKEDELFQPFFHNTGRMDCEHTPEGIEDLKKLYQALHDAGAGLEKTHAWLDNEDEILSKMPLLQRDQIQGWKAIWSQDGGWLAAAKAINAIGQFLKERGVKFGFGGAGSFKQPLFDDEGTTCIGVETADGTKYYADKVVLAAGAWSPTLVDLEDQCCSKAWVYAHIQLTPEEAAEYKGVPVVYNGEFGFFFEPDEFGVIKVCDEFPGFSRFKEHQPYGAPSPKRISVPRSHAKHPTDTYPDASEVSIKKAIATFLPRFQDKELFNRALCWCTDTADAALLMCEHPKWKNFILATGDSGHSFKILPNVGKYVVELIEGRLPEEMAYQWRWRPGGDALKSRRAAPPKDLADMPGWKHDPKL | 513 | 100 | 3
CFP-T7-H2 (protein) MTSNRADTRVIVVGGGGTIGSSTALHLVRSGYAPANITVLDTFEIPSAQSAGHDLNKIMGIALRNKVDLQMSLEARQMWKEDELFQPFFHNTGRMDCEHTPEGIEDLKKLYQALHDAGAGLEKTHAWLDNEDEILSKMPLLQRDQIQGWKAIWSQDGGWLAAAKAINAIGQFLKERGVKFGFGGAGSFKQPLFDDEGTTCIGVETADGTKYYADKVVLAAGAWSPTLVDLEDQCCSKAWVYAHIQLTPEEAAEYKGVPVVYNGEFGFFFEPDEFGVIKVCDEFPGFSRFKEHQPYGAPSPKRISVPRSHAKHPTDTYPDASEVSIKKAIATFLPRFQDKELFNRALCWCTDTADAALLMCEHPKWKNFILATGDSGHSFKILPNVGKYVVELIEGRLPEEMAYQWRWRPGGDALKSRRAAPPKDLADMPGWKHDPKL | 100 |  | 0.0735
CFP-T7-H2-62Q (protein) MTSNRADTRVIVVGGGGTIGSSTALHLVRSGYAPANITVLDTFEIPSAQSAGHDLNKIMGIQLRNKVDLQMSLEARQMWKEDELFQPFFHNTGRMDCEHTPEGIEDLKKLYQALHDAGAGLEKTHAWLDNEDEILSKMPLLQRDQIQGWKAIWSQDGGWLAAAKAINAIGQFLKERGVKFGFGGAGSFKQPLFDDEGTTCIGVETADGTKYYADKVVLAAGAWSPTLVDLEDQCCSKAWVYAHIQLTPEEAAEYKGVPVVYNGEFGFFFEPDEFGVIKVCDEFPGFSRFKEHQPYGAPSPKRISVPRSHAKHPTDTYPDASEVSIKKAIATFLPRFQDKELFNRALCWCTDTADAALLMCEHPKWKNFILATGDSGHSFKILPNVGKYVVELIEGRLPEEMAYQWRWRPGGDALKSRRAAPPKDLADMPGWKHDPKL | 11 |  | 
CFP-T7-H8 (protein) MTSNRADTRVIVVGGGGTIGSSTALHLVRSGYAPANITVLDTFEIPSAQSAGHDLNKIMGIDLENKVDLQMSLEARQMWKEDELFQPFFHNTGRMDCEHTPEGIEDLKKLYQALHDAGAGLEKTHAWLDNEDEILSKMPLLQRDQIQGWKAIWSQDGGWLAAAKAINAIGQFLKERGVKFGFGGAGSFKQPLFDDEGTTCIGVETADGTKYYADKVVLAAGAWSPTLVDLEDQCCSKAWVYAHIQLTPEEAAEYKGVPVVYNGEFGFFFEPDEFGVIKVCDEFPGFSRFKEHQPYGAPSPKRISVPRSHAKHPTDTYPDASEVSIKKAIATFLPRFQDKELFNRALCWCTDTADAALLMCEHPKWKNFILATGDSGHSFKILPNVGKYVVELIEGRLPEEMAYQWRWRPGGDALKSRRAAPPKDLADMPGWKHDPKL |  | 2 | 
CFP-T7-H7 (protein) MTSNRADTRVIVVGGGGTIGSSTALHLVRSGYAPANITVLDTFEIPSAQSAGHDLNKIMGIDLANKVDLQMSLEARQMWKEDELFQPFFHNTGRMDCEHTPEGIEDLKKLYQALHDAGAGLEKTHAWLDNEDEILSKMPLLQRDQIQGWKAIWSQDGGWLAAAKAINAIGQFLKERGVKFGFGGAGSFKQPLFDDEGTTCIGVETADGTKYYADKVVLAAGAWSPTLVDLEDQCCSKAWVYAHIQLTPEEAAEYKGVPVVYNGEFGFFFEPDEFGVIKVCDEFPGFSRFKEHQPYGAPSPKRISVPRSHAKHPTDTYPDASEVSIKKAIATFLPRFQDKELFNRALCWCTDTADAALLMCEHPKWKNFILATGDSGHSFKILPNVGKYVVELIEGRLPEEMAYQWRWRPGGDALKSRRAAPPKDLADMPGWKHDPKL |  | 17 | 
CFP-T7-H2-62E (protein) MTSNRADTRVIVVGGGGTIGSSTALHLVRSGYAPANITVLDTFEIPSAQSAGHDLNKIMGIELRNKVDLQMSLEARQMWKEDELFQPFFHNTGRMDCEHTPEGIEDLKKLYQALHDAGAGLEKTHAWLDNEDEILSKMPLLQRDQIQGWKAIWSQDGGWLAAAKAINAIGQFLKERGVKFGFGGAGSFKQPLFDDEGTTCIGVETADGTKYYADKVVLAAGAWSPTLVDLEDQCCSKAWVYAHIQLTPEEAAEYKGVPVVYNGEFGFFFEPDEFGVIKVCDEFPGFSRFKEHQPYGAPSPKRISVPRSHAKHPTDTYPDASEVSIKKAIATFLPRFQDKELFNRALCWCTDTADAALLMCEHPKWKNFILATGDSGHSFKILPNVGKYVVELIEGRLPEEMAYQWRWRPGGDALKSRRAAPPKDLADMPGWKHDPKL | 21 |  | 
CFP-T7-H10 (protein) MTSNRADTRVIVVGGGGTIGSSTALHLVRSGYAPANITVLDTFEIPSAQSAGHDLNKIMGIDLRNKVDLQMSLEARQMWKEDELFQPFFHNTGRMDCEHTPEGIEALKKLYQALHDAGAGLEKTHAWLDNEDEILSKMPLLQRDQIQGWKAIWSQDGGWLAAAKAINAIGQFLKERGVKFGFGGAGSFKQPLFDDEGTTCIGVETADGTKYYADKVVLAAGAWSPTLVDLEDQCCSKAWVYAHIQLTPEEAAEYKGVPVVYNGEFGFFFEPDEFGVIKVCDEFPGFSRFKEHQPYGAPSPKRISVPRSHAKHPTDTYPDASEVSIKKAIATFLPRFQDKELFNRALCWCTDTADAALLMCEHPKWKNFILATGDSGHSFKILPNVGKYVVELIEGRLPEEMAYQWRWRPGGDALKSRRAAPPKDLADMPGWKHDPKL |  | 301 | 
CFP-T7-H13 (protein) MTSNRADTRVIVVGGGGTIGSSTALHLVRSGYAPANITVLDTFEIPSAQSAGHDLNKIMGIDLRNKVDLQMSLEARQMWKEDELFQPFFHNTGRMDCEHTPEGIEDLKKLYQKLHDAGAGLEKTHAWLDNEDEILSKMPLLQRDQIQGWKAIWSQDGGWLAAAKAINAIGQFLKERGVKFGFGGAGSFKQPLFDDEGTTCIGVETADGTKYYADKVVLAAGAWSPTLVDLEDQCCSKAWVYAHIQLTPEEAAEYKGVPVVYNGEFGFFFEPDEFGVIKVCDEFPGFSRFKEHQPYGAPSPKRISVPRSHAKHPTDTYPDASEVSIKKAIATFLPRFQDKELFNRALCWCTDTADAALLMCEHPKWKNFILATGDSGHSFKILPNVGKYVVELIEGRLPEEMAYQWRWRPGGDALKSRRAAPPKDLADMPGWKHDPKL |  | 207 | 4.33
